Source: patent publication US10450368 (DUKE UNIVERSITY, dated 2019)

Legend:
CH0505_CON D7gp120/293i = experiment: ELISA
CH505w020.14D8gp120 = biological target: T1, CH505w020.14D8gp120; experiment: ELISA
T1 construct: also called CH505w20.14 gp120

CH505w030.20D8gp120/293F = biological target: T2, CH505w030.20D8gp120/293F; experiment: ELISA
T2 construct: also called CH505w30.20 gp120

CH505.w30.12D8gp120 = biological target: T3, CH505.w30.12D8gp120; experiment: ELISA
T3 construct: also called CH505w30.12 gp120

CH505w136.B18D8gp120 = experiment: ELISA
CH505.M5D8gp120293F = experiment: ELISA
CH505.M10D8gp120 = experiment: ELISA
CH505.M11D8gp120/293F = experiment: ELISA
CH505.M19D8gp120 = experiment: ELISA
CH505.M21D8gp120/293F = experiment: ELISA
CH505.M9D8gp120/293F = experiment: ELISA
CH505.M7D8gp120/293F = experiment: ELISA
CH505.TF mutant gp120 M6 = biological target: T4, CH505.TF mutant gp120 M6 (HIV-1); experiment: ELISA
T4 construct: domain: gp120

CH505.TF mutant gp120 M8 = biological target: T5, CH505.TF mutant gp120 M8 (HIV-1); experiment: ELISA
T5 construct: domain: gp120

[1] = biological target: T6, CH505.TF mutant gp120 M20 (HIV-1); experiment: ELISA
T6 construct: domain: gp120

SSA [2] = biological target: T7, SSA; experiment: AtheNA, Ab 25 ug/ml
T7 construct: also called SSA (Ro)

Sm (Smith antigen) [3] = biological target: T8, Sm (Smith antigen); experiment: AtheNA, Ab 25 ug/ml
T8 construct: Protein complex

RNP (ribonucleoprotein) [4] = biological target: T9, RNP (ribonucleoprotein); experiment: AtheNA, Ab 25 ug/ml
T9 construct: Protein-RNA complex

Scl-70 [5] = biological target: T10, Scl-70 (UniProt P11387 1-765); experiment: AtheNA, Ab 25 ug/ml
T10 sequence: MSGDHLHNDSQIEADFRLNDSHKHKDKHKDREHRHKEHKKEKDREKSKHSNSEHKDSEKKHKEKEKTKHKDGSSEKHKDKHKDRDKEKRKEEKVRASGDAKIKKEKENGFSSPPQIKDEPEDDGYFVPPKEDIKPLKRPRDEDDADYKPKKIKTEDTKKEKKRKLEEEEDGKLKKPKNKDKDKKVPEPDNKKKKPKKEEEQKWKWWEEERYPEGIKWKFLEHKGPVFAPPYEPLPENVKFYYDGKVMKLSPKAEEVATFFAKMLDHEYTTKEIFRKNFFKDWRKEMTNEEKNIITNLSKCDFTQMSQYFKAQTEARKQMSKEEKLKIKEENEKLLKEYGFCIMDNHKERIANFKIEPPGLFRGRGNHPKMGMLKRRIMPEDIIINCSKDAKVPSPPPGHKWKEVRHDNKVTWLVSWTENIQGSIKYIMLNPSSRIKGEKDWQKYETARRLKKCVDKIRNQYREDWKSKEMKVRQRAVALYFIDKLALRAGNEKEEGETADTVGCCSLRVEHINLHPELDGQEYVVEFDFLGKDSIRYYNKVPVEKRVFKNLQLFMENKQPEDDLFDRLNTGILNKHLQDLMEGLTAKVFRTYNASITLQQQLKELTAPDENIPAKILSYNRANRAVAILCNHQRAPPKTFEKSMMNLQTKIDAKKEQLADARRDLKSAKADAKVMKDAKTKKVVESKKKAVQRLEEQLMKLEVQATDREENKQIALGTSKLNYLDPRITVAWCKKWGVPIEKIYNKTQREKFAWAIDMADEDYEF

Histones [6] = biological target: T11, Histones; experiment: AtheNA, Ab 25 ug/ml
T11 construct: Mixture of proteins

SSA [7] = biological target: T7, SSA; experiment: AtheNA, Ab 50 ug/ml
Sm (Smith antigen) [8] = biological target: T8, Sm (Smith antigen); experiment: AtheNA, Ab 50 ug/ml
Histones [9] = biological target: T11, Histones; experiment: AtheNA, Ab 50 ug/ml
SSA [10] = biological target: T7, SSA; experiment: AtheNA, Ab 12.5 ug/ml
Sm (Smith antigen) [11] = biological target: T8, Sm (Smith antigen); experiment: AtheNA, Ab 12.5 ug/ml
RNP (ribonucleoprotein) [12] = biological target: T9, RNP (ribonucleoprotein); experiment: AtheNA, Ab 12.5 ug/ml
Scl-70 [13] = biological target: T10, Scl-70; experiment: AtheNA, Ab 12.5 ug/ml
Histones [14] = biological target: T11, Histones; experiment: AtheNA, Ab 12.5 ug/ml
SSA [15] = biological target: T7, SSA; experiment: AtheNA, Ab 6.25 ug/ml
Sm (Smith antigen) [16] = biological target: T8, Sm (Smith antigen); experiment: AtheNA, Ab 6.25 ug/ml
RNP (ribonucleoprotein) [17] = biological target: T9, RNP (ribonucleoprotein); experiment: AtheNA, Ab 6.25 ug/ml
Scl-70 [18] = biological target: T10, Scl-70; experiment: AtheNA, Ab 6.25 ug/ml
Histones [19] = biological target: T11, Histones; experiment: AtheNA, Ab 6.25 ug/ml
[20] = biological target: T12, HIV-1 CH505 transmitted/founder gp120 Env (HIV-1); experiment: competition ELISA, blocking of CH106 binding to gp120
T12 construct: domain: gp120; also called CH505.TF gp120; CH505 TF gp120 Env

B1: CH236 (antibody, V domains shown)
VH: QVQLVQSGAAVKRPGASVTISCRASGYTFTTYYIHWVRQAPGQRLELMGMIDPSRGRTDYAQKFQGRVTMSRDTSTSTLYMELRSLRPDDTALYYCVRNVGTEGSLLHYDYWGQGTLVTVSS
VL: EIVLTQSPATLSVSPGERVTLSCRASQSVRNNLAWYRQKRGQAPRLLIYGASTRATGIPARFSGSGSGTEFTLTISSMQSEDFAVYYCQQYNNWWTFGQGTKVEIK
notes: also called CH236_4A/293i
B1 was tested. Which LogAUC (CH0505_CON D7gp120/293i) did it give?
The LogAUC was 6.89.

And the LogAUC (CH505w020.14D8gp120)?
Its LogAUC is 6.72.

And the LogAUC (CH505w030.20D8gp120/293F)?
Its LogAUC is 6.23.

What about the LogAUC (CH505.w30.12D8gp120) of the same binder?
The LogAUC was 0.95.

And the LogAUC (CH505w136.B18D8gp120)?
The LogAUC was 3.51.

And the LogAUC (CH505.M5D8gp120293F)?
The LogAUC was 7.27.

What about the LogAUC (CH505.M10D8gp120) of the same binder?
Its LogAUC is 6.07.

And the LogAUC (CH505.M11D8gp120/293F)?
The LogAUC was 1.43.

What about the LogAUC (CH505.M19D8gp120) of the same binder?
Its LogAUC is 1.54.

And the LogAUC (CH505.M21D8gp120/293F)?
The LogAUC was 0.

And the LogAUC (CH505.M9D8gp120/293F)?
The LogAUC was 0.

And the LogAUC (CH505.M7D8gp120/293F)?
Its LogAUC is 0.

And the LogAUC (CH505.TF mutant gp120 M6)?
Its LogAUC is 6.31.

And the LogAUC (CH505.TF mutant gp120 M8)?
Its LogAUC is 0.

And the LogAUC [1]?
Its LogAUC is 0.

What about the AtheNA signal (SSA [2]) of the same binder?
Its AtheNA signal is 224 relative luminescence units.

What about the AtheNA signal (Sm (Smith antigen) [3]) of the same binder?
The AtheNA signal was 165 relative luminescence units.

What about the AtheNA signal (RNP (ribonucleoprotein) [4]) of the same binder?
The AtheNA signal was 69 relative luminescence units.

What about the AtheNA signal (Scl-70 [5]) of the same binder?
Its AtheNA signal is 62 relative luminescence units.

What about the AtheNA signal (Histones [6]) of the same binder?
Its AtheNA signal is 193 relative luminescence units.

And the AtheNA signal (SSA [7])?
The AtheNA signal was 177 relative luminescence units.

What about the AtheNA signal (Sm (Smith antigen) [8]) of the same binder?
Its AtheNA signal is 128 relative luminescence units.

What about the AtheNA signal (Histones [9]) of the same binder?
Its AtheNA signal is 138 relative luminescence units.

And the AtheNA signal (SSA [10])?
Its AtheNA signal is 185 relative luminescence units.

What about the AtheNA signal (Sm (Smith antigen) [11]) of the same binder?
Its AtheNA signal is 258 relative luminescence units.

What about the AtheNA signal (RNP (ribonucleoprotein) [12]) of the same binder?
Its AtheNA signal is 78 relative luminescence units.

What about the AtheNA signal (Scl-70 [13]) of the same binder?
Its AtheNA signal is 50 relative luminescence units.

What about the AtheNA signal (Histones [14]) of the same binder?
Its AtheNA signal is 234 relative luminescence units.

What about the AtheNA signal (SSA [15]) of the same binder?
The AtheNA signal was 44 relative luminescence units.

What about the AtheNA signal (Sm (Smith antigen) [16]) of the same binder?
Its AtheNA signal is 184 relative luminescence units.

And the AtheNA signal (RNP (ribonucleoprotein) [17])?
The AtheNA signal was 40 relative luminescence units.

What about the AtheNA signal (Scl-70 [18]) of the same binder?
The AtheNA signal was 31 relative luminescence units.

What about the AtheNA signal (Histones [19]) of the same binder?
Its AtheNA signal is 154 relative luminescence units.

What about the IC50 [20] of the same binder?
The IC50 was 82.2 µg/mL.
